Assay results: patent WO2017055393A1

What was measured:
[1] = target: human Tim-3 (T cell Immunoglobulin- and Mucin domain-containing molecule 3) (human) (UniProt Q8TDQ0); assay: FACS, 10 ug/ml PE-labeled antibody on EOL-1 cells (24h pre-treated with 10 ng/ml PMA); geom. mean MFI sample / isotype control
[2] = target: human Tim-3 (T cell Immunoglobulin- and Mucin domain-containing molecule 3) (human) (UniProt Q8TDQ0); assay: FACS, 10 ug/ml PE-labeled antibody on TF-1 cells; geom. mean MFI sample minus isotype control
[3] = target: human Tim-3 (T cell Immunoglobulin- and Mucin domain-containing molecule 3) (human) (UniProt Q8TDQ0); assay: FACS, 10 ug/ml PE-labeled antibody on Karpas-299 cells; geom. mean MFI sample minus isotype control
[4] = target: human Tim-3 (T cell Immunoglobulin- and Mucin domain-containing molecule 3) (human) (UniProt Q8TDQ0); assay: FACS, 10 ug/ml PE-labeled antibody on Kasumi-1 cells; geom. mean MFI sample minus isotype control
[5] = target: human Tim-3 (T cell Immunoglobulin- and Mucin domain-containing molecule 3) (human) (UniProt Q8TDQ0); assay: FACS, 10 ug/ml PE-labeled antibody on EOL-1 cells (24h pre-treated with 10 ng/ml PMA); geom. mean MFI sample minus isotype control
[6] = target: human Tim-3 (T cell Immunoglobulin- and Mucin domain-containing molecule 3) (human) (UniProt Q8TDQ0); assay: FACS, 10 ug/ml PE-labeled antibody on SR cells; geom. mean MFI sample / isotype control
[7] = target: human Tim-3 (T cell Immunoglobulin- and Mucin domain-containing molecule 3) (human) (UniProt Q8TDQ0); assay: FACS, 10 ug/ml PE-labeled antibody on Pfeiffer cells; geom. mean MFI sample / isotype control
[8] = target: human Tim-3 (T cell Immunoglobulin- and Mucin domain-containing molecule 3) (human) (UniProt Q8TDQ0); assay: FACS, 10 ug/ml PE-labeled antibody on Karpas-299 cells; geom. mean MFI sample / isotype control
[9] = target: human Tim-3 (T cell Immunoglobulin- and Mucin domain-containing molecule 3) (human) (UniProt Q8TDQ0); assay: FACS, 10 ug/ml PE-labeled antibody on KG-1 cells; geom. mean MFI sample / isotype control
[10] = target: human Tim-3 (T cell Immunoglobulin- and Mucin domain-containing molecule 3) (human) (UniProt Q8TDQ0); assay: FACS, 10 ug/ml PE-labeled antibody on CMK cells; geom. mean MFI sample minus isotype control
[11] = target: human Tim-3 (T cell Immunoglobulin- and Mucin domain-containing molecule 3) (human) (UniProt Q8TDQ0); assay: FACS, 10 ug/ml PE-labeled antibody on KG-1 cells; geom. mean MFI sample minus isotype control
[12] = target: human Tim-3 (T cell Immunoglobulin- and Mucin domain-containing molecule 3) (human) (UniProt Q8TDQ0); assay: FACS, 10 ug/ml PE-labeled antibody on CMK cells; geom. mean MFI sample / isotype control
[13] = target: human Tim-3 (T cell Immunoglobulin- and Mucin domain-containing molecule 3) (human) (UniProt Q8TDQ0); assay: FACS, 10 ug/ml PE-labeled antibody on TF-1 cells; geom. mean MFI sample / isotype control
[14] = target: human Tim-3 (T cell Immunoglobulin- and Mucin domain-containing molecule 3) (human) (UniProt Q8TDQ0); assay: FACS, 10 ug/ml PE-labeled antibody on SR cells; geom. mean MFI sample minus isotype control
[15] = target: human Tim-3 (T cell Immunoglobulin- and Mucin domain-containing molecule 3) (human) (UniProt Q8TDQ0); assay: FACS, 10 ug/ml PE-labeled antibody on Pfeiffer cells; geom. mean MFI sample minus isotype control
[16] = target: human Tim-3 (T cell Immunoglobulin- and Mucin domain-containing molecule 3) (human) (UniProt Q8TDQ0); assay: FACS, 10 ug/ml PE-labeled antibody on Kasumi-1 cells; geom. mean MFI sample / isotype control
[17] = target: human Tim-3 (T cell Immunoglobulin- and Mucin domain-containing molecule 3) (human) (UniProt Q8TDQ0); assay: FACS, 10 ug/ml PE-labeled antibody on RPMI-8226 cells; geom. mean MFI sample / isotype control
[18] = target: human Tim-3 (T cell Immunoglobulin- and Mucin domain-containing molecule 3) (human) (UniProt Q8TDQ0); assay: FACS, 10 ug/ml PE-labeled antibody on RPMI-8226 cells; geom. mean MFI sample minus isotype control

human Tim-3 (T cell Immunoglobulin- and Mucin domain-containing molecule 3) (human), sequence (Q8TDQ0 22-301): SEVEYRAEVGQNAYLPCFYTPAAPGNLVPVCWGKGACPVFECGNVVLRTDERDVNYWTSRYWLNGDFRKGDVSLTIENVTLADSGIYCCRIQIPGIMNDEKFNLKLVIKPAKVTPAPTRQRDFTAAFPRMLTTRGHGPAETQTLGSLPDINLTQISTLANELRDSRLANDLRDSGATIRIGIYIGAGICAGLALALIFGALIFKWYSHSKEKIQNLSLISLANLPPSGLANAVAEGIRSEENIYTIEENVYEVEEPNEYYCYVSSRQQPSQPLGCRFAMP

RFI (ratio of specific binding) [1]: 2 RFI
MFI (specific binding) [2]: 229 MFI
MFI (specific binding) [3]: 247 MFI
MFI (specific binding) [4]: 164 MFI
MFI (specific binding) [5]: 207 MFI
RFI (ratio of specific binding) [6]: 19 RFI
RFI (ratio of specific binding) [7]: 51 RFI
RFI (ratio of specific binding) [8]: 3 RFI
RFI (ratio of specific binding) [9]: 5 RFI
MFI (specific binding) [10]: 384 MFI
MFI (specific binding) [11]: 363 MFI
RFI (ratio of specific binding) [12]: 5 RFI
RFI (ratio of specific binding) [13]: 3 RFI
MFI (specific binding) [14]: 1050 MFI
MFI (specific binding) [15]: 3610 MFI
RFI (ratio of specific binding) [16]: 4 RFI
RFI (ratio of specific binding) [17]: 23 RFI
MFI (specific binding) [18]: 1790 MFI
Substance: PE labeled anti-TIM3 (clone 344823, R&D) (antibody)
